Usually Kd stands for the equilibrium constant for the complex coming apart. In general, koff refers to a measure of how fast the partners let go of each other. Broadly, the kon is the rate constant with which the complex forms.

Results on 4 molecules are retold here after article PMC6097439 (BMC Biology, 2018).

Assay [1] addresses Tie2, immobilized for SPR (human, UniProt Q02763 23-1124, Limits of the immobilized Tie2 are not printed. Taken as the mature extracellular domain (the text says extracellular domain of rhTie2 in the dual SPR experiment), ending at Lys745 as in commercial rh). In words: SPR; Tie2 immobilized, Ang2-BD variants as analytes; ProteOn XPR36; steady state fit; as previously described [54]. Particulars: both partners purified. Background: Surface plasmon resonance follows binding to a sensor surface in real time, without labels.

Assay [2] addresses T1, recombinant αvβ3 integrin (human, UniProt P06756 31-992; P05106 27-718).
T1 construct: human integrin αv subunit (Phe31-Val992); human integrin β3 subunit (Gly27-Asp718); also called solubilized αvβ3 integrin; αvβ3 integrin extracellular domain; source: bought: R&D Systems
In words: SPR; αvβ3 integrin immobilized by amine coupling (GLC chip), 12.5 to 200 nM Ang2-BD variants as analytes, 25 °C, IBB; 1:1 Langmuir model. Particulars: both partners purified.

The target in assay [3] is Tie2 expressed on TIME cells (human (endogenous in TIME cells), UniProt Q02763 23-1124). In words: cell-based or functional assay.
In assay [4] the target is αvβ3 integrin expressed on TIME cells (human (endogenous in TIME cells), UniProt P06756 31-1048; P05106 27-788). Kind of assay: cell-based or functional assay.
αvβ3 integrin expressed on TIME cells, sequence (P06756 31-1048, chain 1 of 2): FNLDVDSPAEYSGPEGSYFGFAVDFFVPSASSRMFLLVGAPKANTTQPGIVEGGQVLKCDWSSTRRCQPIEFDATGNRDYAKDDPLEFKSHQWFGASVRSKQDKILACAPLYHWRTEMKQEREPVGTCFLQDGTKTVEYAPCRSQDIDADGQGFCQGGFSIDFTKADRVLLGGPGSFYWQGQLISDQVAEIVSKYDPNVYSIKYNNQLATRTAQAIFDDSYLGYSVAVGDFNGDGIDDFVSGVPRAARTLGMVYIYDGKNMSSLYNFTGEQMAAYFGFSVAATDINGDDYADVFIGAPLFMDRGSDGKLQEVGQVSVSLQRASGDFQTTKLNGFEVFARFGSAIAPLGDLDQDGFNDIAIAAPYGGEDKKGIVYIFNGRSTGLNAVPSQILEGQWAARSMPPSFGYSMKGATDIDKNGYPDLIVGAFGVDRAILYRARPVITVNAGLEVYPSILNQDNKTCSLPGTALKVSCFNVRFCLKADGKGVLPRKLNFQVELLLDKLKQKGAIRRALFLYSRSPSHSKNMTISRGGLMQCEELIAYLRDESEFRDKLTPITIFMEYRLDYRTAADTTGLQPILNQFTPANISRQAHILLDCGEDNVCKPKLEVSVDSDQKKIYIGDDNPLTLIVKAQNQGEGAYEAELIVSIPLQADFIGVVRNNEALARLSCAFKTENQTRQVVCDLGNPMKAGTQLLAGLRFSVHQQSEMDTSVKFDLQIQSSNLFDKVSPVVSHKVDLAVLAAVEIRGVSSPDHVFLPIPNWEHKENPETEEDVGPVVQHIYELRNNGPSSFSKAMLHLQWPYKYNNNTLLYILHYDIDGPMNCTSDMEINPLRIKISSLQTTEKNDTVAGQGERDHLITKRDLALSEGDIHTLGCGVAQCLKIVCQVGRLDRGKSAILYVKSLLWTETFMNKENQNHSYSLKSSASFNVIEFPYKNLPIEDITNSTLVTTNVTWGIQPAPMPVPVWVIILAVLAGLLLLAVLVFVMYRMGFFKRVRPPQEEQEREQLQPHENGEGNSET
αvβ3 integrin expressed on TIME cells, sequence (P05106 27-788, chain 2 of 2): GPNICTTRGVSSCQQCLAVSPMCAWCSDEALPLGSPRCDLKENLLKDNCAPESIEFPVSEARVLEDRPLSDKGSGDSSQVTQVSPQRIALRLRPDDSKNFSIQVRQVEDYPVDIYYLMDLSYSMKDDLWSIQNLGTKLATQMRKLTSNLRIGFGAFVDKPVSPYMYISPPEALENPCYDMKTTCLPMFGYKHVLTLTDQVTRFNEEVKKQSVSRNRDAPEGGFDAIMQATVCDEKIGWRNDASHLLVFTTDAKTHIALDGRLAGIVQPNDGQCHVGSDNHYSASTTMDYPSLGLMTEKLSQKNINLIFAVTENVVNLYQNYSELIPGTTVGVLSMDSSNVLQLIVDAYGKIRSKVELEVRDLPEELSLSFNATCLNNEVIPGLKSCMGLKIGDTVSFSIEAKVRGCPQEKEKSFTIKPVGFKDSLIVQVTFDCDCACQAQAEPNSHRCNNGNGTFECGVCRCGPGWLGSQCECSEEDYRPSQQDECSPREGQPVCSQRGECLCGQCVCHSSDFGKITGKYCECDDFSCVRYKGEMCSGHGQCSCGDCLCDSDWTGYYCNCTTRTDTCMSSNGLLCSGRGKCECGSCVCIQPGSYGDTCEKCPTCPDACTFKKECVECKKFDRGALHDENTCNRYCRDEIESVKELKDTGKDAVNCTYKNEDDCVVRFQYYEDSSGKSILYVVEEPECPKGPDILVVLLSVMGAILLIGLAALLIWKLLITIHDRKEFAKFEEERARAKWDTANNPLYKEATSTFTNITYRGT
The target of assay [5] is T2, recombinant α5β1 integrin (human, UniProt P08648 42-995; P05556 21-728).
T2 construct: human integrin α5 subunit, extracellular domain; human integrin β1 subunit, extracellular domain; source: bought: R&D Systems
T2 sequence (P08648 42-995, chain 1 of 2): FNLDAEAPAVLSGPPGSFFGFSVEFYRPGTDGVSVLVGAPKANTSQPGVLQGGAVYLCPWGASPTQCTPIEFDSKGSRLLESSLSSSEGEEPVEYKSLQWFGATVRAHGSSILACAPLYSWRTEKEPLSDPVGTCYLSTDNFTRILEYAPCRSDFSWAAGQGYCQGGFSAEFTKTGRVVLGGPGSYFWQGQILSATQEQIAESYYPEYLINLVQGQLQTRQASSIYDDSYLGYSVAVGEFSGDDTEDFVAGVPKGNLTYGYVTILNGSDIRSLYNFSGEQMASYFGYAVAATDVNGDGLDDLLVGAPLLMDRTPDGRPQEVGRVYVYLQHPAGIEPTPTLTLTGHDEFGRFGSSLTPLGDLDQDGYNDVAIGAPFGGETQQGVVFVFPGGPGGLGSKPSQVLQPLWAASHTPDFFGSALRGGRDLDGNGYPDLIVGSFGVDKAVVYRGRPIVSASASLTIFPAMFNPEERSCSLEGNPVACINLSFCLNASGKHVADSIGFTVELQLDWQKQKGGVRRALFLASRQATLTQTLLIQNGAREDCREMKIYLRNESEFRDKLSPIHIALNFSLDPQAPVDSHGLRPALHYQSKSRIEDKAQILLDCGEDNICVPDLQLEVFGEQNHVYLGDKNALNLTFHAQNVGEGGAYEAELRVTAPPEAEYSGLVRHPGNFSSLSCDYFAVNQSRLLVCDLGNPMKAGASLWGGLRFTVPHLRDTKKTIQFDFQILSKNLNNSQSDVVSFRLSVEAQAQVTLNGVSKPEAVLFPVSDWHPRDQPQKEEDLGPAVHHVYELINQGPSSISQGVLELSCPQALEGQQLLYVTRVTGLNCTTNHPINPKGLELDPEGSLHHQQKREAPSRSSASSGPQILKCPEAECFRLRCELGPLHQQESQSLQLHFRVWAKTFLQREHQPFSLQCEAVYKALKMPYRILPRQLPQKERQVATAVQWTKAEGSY
T2 sequence (P05556 21-728, chain 2 of 2): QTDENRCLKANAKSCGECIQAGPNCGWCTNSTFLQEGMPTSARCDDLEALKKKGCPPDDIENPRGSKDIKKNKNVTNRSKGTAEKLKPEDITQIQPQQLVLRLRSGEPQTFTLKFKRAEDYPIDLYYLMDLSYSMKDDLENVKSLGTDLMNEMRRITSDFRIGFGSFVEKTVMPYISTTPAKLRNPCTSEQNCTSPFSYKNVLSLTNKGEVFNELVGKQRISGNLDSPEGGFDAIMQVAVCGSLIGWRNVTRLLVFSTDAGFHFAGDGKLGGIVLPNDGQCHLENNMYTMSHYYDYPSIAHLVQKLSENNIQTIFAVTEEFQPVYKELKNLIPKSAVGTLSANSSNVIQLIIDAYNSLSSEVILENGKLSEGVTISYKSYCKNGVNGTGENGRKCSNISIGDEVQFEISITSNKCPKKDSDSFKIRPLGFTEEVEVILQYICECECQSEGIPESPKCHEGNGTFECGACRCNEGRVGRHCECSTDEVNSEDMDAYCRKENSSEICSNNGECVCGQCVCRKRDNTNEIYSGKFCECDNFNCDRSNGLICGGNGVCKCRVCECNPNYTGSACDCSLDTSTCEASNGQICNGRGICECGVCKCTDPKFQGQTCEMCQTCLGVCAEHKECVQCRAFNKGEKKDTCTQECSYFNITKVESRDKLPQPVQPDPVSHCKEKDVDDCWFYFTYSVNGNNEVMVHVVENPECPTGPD
In words: SPR; integrins other than αvβ3 immobilized by amine coupling, 1 μM of the Ang2-BD variants as analyte, 25 °C, IBB. The note with it: both partners purified.

Assay [6] has as its target T3, recombinant αvβ5 integrin (human, UniProt P06756 31-992; P18084 24-719).
T3 construct: human integrin αv subunit, extracellular domain; human integrin β5 subunit, extracellular domain; source: bought: R&D Systems
In words: SPR; αvβ5, αvβ1, αvβ6, αvβ8 integrins immobilized, 62.5 to 1000 nM Ang2-BDBC5 as analyte, 25 °C, IBB; two-state binding model. The note with it: both partners purified.

Assay [7] concerns the target T4, recombinant αvβ8 integrin (human, UniProt P06756 31-992; P26012 43-684).
T4 construct: human integrin αv subunit, extracellular domain; human integrin β8 subunit, extracellular domain; source: bought: R&D Systems
The description is as above. The note with it: both partners purified.

Assay [8] addresses T5, recombinant αvβ6 integrin (human, UniProt P06756 31-992; P18564 22-709).
T5 construct: human integrin αv subunit, extracellular domain; human integrin β6 subunit, extracellular domain; source: bought: R&D Systems
The assay is described as above. The note with it: both partners purified.

The target of assay [9] is T6, recombinant αvβ1 integrin (human, UniProt P06756 31-992; P05556 21-728).
T6 construct: human integrin αv subunit, extracellular domain; human integrin β1 subunit, extracellular domain; source: bought: R&D Systems
T6 sequence (P06756 31-992, chain 1 of 2): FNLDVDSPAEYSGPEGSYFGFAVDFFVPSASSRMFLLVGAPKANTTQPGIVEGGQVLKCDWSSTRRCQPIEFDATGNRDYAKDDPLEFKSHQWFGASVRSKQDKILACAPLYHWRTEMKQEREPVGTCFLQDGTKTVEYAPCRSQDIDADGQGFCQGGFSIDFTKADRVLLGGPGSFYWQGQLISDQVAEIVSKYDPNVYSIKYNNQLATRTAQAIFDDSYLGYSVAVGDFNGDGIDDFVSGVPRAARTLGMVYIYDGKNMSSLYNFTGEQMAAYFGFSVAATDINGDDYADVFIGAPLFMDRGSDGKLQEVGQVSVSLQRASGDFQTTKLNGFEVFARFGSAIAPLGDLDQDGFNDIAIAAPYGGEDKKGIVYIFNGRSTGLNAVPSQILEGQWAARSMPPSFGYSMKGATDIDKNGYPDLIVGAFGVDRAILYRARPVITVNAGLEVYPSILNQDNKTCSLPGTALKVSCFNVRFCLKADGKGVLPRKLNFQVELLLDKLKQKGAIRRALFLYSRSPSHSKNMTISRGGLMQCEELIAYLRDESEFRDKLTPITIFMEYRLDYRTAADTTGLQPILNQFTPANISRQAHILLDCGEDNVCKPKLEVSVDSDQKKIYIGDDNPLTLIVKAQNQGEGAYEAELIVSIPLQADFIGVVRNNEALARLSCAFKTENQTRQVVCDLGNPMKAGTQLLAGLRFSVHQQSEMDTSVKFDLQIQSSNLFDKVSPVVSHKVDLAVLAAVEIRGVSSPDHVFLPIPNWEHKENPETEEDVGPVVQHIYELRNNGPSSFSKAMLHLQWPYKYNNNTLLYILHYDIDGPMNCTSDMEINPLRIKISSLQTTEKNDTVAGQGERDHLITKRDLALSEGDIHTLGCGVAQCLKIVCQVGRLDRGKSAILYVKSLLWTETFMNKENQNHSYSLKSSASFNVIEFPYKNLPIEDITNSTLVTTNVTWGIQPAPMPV
T6 sequence (P05556 21-728, chain 2 of 2): as the sequence (P05556 21-728, chain 2 of 2) above
The description is as above. The note with it: both partners purified.

Changes are numbered by the printed parent chain.

B1: Ang2-BDWT, soluble protein (domain or fragment, UniProt O15123 281-496, looked up)
chain: FRDCAEVFKSGHTTNGIYTLTFPNSTEEIKAYCDMEAGGGGWTIIQRREDGSVDFQRTWKEYKVGFGNPSGEYWLGNEFVSQLTNQQRYVLKIHLKDWEGNEAYSLYEHFYLSSEELNYRIHLKGLTGTAGKISSISQPGNDFSTKDGDNDKCICKCSQMLTGGWWFDACGPSNLNGMYYPQRQNTNKFNGIKWYYWKGSGYSLKATTMMIRPADF
notes: The limits 281-496 are stated for the Ang2-BDWT gene; also called wild-type Ang2 BD; mono-specific Ang2-BDWT; source: Pichia (Multi-Copy Pichia Expression Kit), purified from yeast culture supernatant (HisTrap, Superdex 200)
In the case of B1, in [1], the affinity, expressed as Kd, was 660 nM.

B2: Ang2-BDBC6, soluble protein (designed binder)
chain: FRDCAEVFKSGHTTNGIYTLREGRGDNVDIKAYCDMEAGGGGWTIIQRREDGSVDFQRTWKEYKVGFGNPSGEYWLGNEFVSQLTNQQRYVLKIHLKDWEGNEAYSLYEHFYLSSEELNYRIHLKGLTGTAGKISSISQPGNDFSTKDGDNDKCICKCSQMLTGGWWFDACGPSNLNGMYYPQRQNTNKFNGIKWYYWKGSGYSLKATTMMIRPADF
notes: also called Ang2-BD bi-specific variant; source: Pichia (Multi-Copy Pichia Expression Kit), purified from yeast culture supernatant (HisTrap, Superdex 200)
With B2, in [2], the dissociation constant (Kd) amounted to 2.97 nM, the dissociation rate constant (koff) turned out to be 0.000236 s⁻¹ and the kon is 79400 M⁻¹ s⁻¹. Besides, the “decrease in Tie2 phosphorylation intensity, TIME cells on vitronectin, 500 ng/ml FL-Ang1 with 1 μM variant (blocks FL-Ang1 on Tie2)” value (“decrease … (blocks FL-Ang1 on Tie2)” for short) in assay [3] was 64%. For the same molecule, in assay [4], the “decrease in adhesion of TIME cells to vitronectin-coated plates, 1 μM variant, with 500 ng/ml FL-Ang1 (blocks αvβ3 integrin on vitronectin)” value was found to be 35% and the “decrease in adhesion of TIME cells to vitronectin-coated plates, 1 μM variant, without FL-Ang1 (blocks αvβ3 integrin on vitronectin)” value was 39%. Moreover, in [5], the binding result is listed as “binds”. This molecule also yielded a dissociation constant Kd in assay [1] of 1260 nM.

B3: Ang2-BDBC10, soluble protein (designed binder)
chain: B2 chain with R21Y, E22P, V28P
notes: as for B2
As to B3, in assay [2], the Kd came to 4.17 nM, the koff amounted to 0.000429 s⁻¹ and the on-rate constant (kon) amounted to 103000 M⁻¹ s⁻¹. Besides, the “decrease … (blocks FL-Ang1 on Tie2)” value in assay [3] came out at 67%. In assay [4], the “decrease in adhesion of TIME cells to vitronectin-coated plates, 1 μM variant, with 500 ng/ml FL-Ang1 (blocks αvβ3 integrin on vitronectin)” value amounted to 37% and the “decrease in adhesion of TIME cells to vitronectin-coated plates, 1 μM variant, without FL-Ang1 (blocks αvβ3 integrin on vitronectin)” value came out at 47%. Also, the binding result in assay [5] was “binds”. Further, the dissociation constant (Kd) in assay [1] was determined as 950 nM.

B4: Ang2-BDBC5, soluble protein (designed binder)
chain: B2 chain with R21N, E22T, G23C, N27C, V28L, D29P
notes: as for B2
In the case of B4, in [2], the dissociation constant (Kd) amounted to 14.9 nM, the dissociation rate constant (koff) worked out at 0.000444 s⁻¹ and the on-rate constant (kon) came out at 29900 M⁻¹ s⁻¹. Moreover, in [6], the Kd was 65 nM; the “Koff1 (two-state model, step 1)” value turned out to be 0.00259 s⁻¹; the “Koff2 (two-state model, step 2)” value is 0.00035 s⁻¹; the “Kon1 (two-state model, step 1)” value amounted to 39800 M⁻¹ s⁻¹. Besides, in assay [6], the “Kon2 (two-state model, step 2)” value turned out to be 0.00544 s⁻¹. In assay [7], the Kd is 138 nM; the “Koff1 (two-state model, step 1)” value worked out at 0.00505 s⁻¹; the “Koff2 (two-state model, step 2)” value is 0.00215 s⁻¹; the “Kon1 (two-state model, step 1)” value was determined as 36600 M⁻¹ s⁻¹. Besides, the “Kon2 (two-state model, step 2)” value in assay [7] was determined as 0.0024 s⁻¹. In assay [8], the Kd amounted to 364 nM; the “Koff1 (two-state model, step 1)” value was found to be 0.00835 s⁻¹; the “Koff2 (two-state model, step 2)” value turned out to be 0.00106 s⁻¹; the “Kon1 (two-state model, step 1)” value stood at 22900 M⁻¹ s⁻¹. Besides, the “Kon2 (two-state model, step 2)” value in [8] was determined as 0.0032 s⁻¹. Further, in assay [9], the Kd is 550 nM; the “Koff1 (two-state model, step 1)” value turned out to be 0.00629 s⁻¹; the “Koff2 (two-state model, step 2)” value turned out to be 0.00197 s⁻¹; the “Kon1 (two-state model, step 1)” value was found to be 11400 M⁻¹ s⁻¹. In addition, in assay [9], the “Kon2 (two-state model, step 2)” value is 0.00304 s⁻¹. The “decrease … (blocks FL-Ang1 on Tie2)” value in assay [3] turned out to be 67%. In addition, in assay [4], the “decrease in adhesion of TIME cells to vitronectin-coated plates, 1 μM variant, with 500 ng/ml FL-Ang1 (blocks αvβ3 integrin on vitronectin)” value is 53% and the “decrease in adhesion of TIME cells to vitronectin-coated plates, 1 μM variant, without FL-Ang1 (blocks αvβ3 integrin on vitronectin)” value worked out at 30%. The binding result in [5] is on record as “binds”. Besides, in assay [1], the affinity, expressed as Kd, was 1360 nM.
